Experimental findings from US6319685A (Unigene Laboratories, Inc., priority 1987, dated 2001) are described below.

What all share (format): biochemical
Data set [1] has as its target T1, alpha-amidating enzyme (Rattus norvegicus, UniProt P14925).
T1 sequence (P14925 36-976): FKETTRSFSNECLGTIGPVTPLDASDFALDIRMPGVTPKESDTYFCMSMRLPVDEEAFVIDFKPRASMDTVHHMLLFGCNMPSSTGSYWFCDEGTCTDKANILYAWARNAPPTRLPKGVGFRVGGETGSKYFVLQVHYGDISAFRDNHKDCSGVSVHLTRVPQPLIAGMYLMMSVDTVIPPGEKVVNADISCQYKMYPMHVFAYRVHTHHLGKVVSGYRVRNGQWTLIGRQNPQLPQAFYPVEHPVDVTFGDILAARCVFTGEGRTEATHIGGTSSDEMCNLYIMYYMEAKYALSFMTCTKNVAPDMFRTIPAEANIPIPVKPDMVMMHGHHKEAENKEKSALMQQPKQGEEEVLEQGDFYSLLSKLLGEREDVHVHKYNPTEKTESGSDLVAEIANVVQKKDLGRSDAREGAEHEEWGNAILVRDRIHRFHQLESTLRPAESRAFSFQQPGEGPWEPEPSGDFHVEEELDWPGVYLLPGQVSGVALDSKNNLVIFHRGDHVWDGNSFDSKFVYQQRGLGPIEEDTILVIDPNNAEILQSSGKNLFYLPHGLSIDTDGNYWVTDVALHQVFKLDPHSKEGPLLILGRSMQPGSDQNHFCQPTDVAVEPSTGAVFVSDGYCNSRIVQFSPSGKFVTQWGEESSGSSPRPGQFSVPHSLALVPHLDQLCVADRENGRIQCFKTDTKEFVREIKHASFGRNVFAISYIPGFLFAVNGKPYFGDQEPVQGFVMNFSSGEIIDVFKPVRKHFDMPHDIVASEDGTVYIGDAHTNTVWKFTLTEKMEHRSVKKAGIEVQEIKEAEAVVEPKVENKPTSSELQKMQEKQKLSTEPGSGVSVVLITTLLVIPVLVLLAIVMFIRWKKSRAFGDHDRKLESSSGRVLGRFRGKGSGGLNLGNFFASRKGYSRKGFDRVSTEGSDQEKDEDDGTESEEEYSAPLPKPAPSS
The experiment in a line: comparison of assay systems / kinetic analysis of amidation of dansyl-Tyr-Val-Gly, D-Tyr-Val-Gly and 125I-D-Tyr-Val-Gly. The procedure: I. Monodansyl L-Tyr-Val-Gly
The concentration of enzyme used in all experiments was left constant except where noted.
(§1) The reaction mixture for the conversion of the monodansyl substrate contained:
5 μl of 100 ug/mL bovine pancreatic catalase
5 μl containing 2 nmoles of substrate
The samples were prepared in duplicate and incubated at 37° C. for 10, 20 and 30 minutes time periods. The enzymatic reaction was halted by the addition of 10 ul 500 mM EDTA. Substrate and product were separated by RP HPLC using an Hewlett Packard-1090 liquid chromatography system, and quantitation was achieved using a HP-3392 integrator.
D-Tyr-Val-Gly and D-Tyr-Val-NH2 were iodinated using iodobeads from Pierce Chemical Company. The radiolabeied substrate and product were used to calibrate a sulfyl-propyl cation-exchange column. ^125 I D-Tyr-Val-Gly was added to 650 uM D-Tyr-Val-Gly and used as the substrate. The reaction mixture for the conversion of monodansyl substrate contained:
Samples were incubated for 10, 20, 30 minutes at 37° C. The reaction was stopped by addition of 500 mM EDTA. […] The conversion of radiolabeled substrate to product was linear with respect to time.
The reaction conditions used for the amidation of D-Tyr-Val-Gly are identical to those described for the dansyl and iodinated substrates. Substrate concentration in the reaction mixture was 650 uM. Separation of substrate and product is achieved by gradient elution on RP-HPLC using a HP-1090 liquid chromatography system. The column effluents were monitored at 280 nm. The level of sensitivity for this assay is much lower than that for either dansyl or iodinated substrates.
Furthermore, a somewhat more rigorous kinetic analysis has also been employed to compare the dansyl-Tyr-Val-Gly (Applicants') assay to the D-Tyr-Val-Gly (prior art) assay.

The target in data set [2] is T1, alpha-amidating enzyme. The experiment in a line: kinetic studies of alpha-amidating enzyme with monodansyl L-Tyr-Val-Gly. To be noted: pH 7.0, 37° C. From the text: These assays incorporate the use of synthetic tripeptide substrates. Amidation of these substrates is conveniently monitored by separation and quantification of the product ([…] and substrate tripeptide) using HPLC. The most sensitive of the assays developed utilizes monodansyl L-Tyr-Val-Gly as substrate. This compound can be detected at extremely low levels because the dansyl group is fluorescent.
In particular, the kinetic parameters Km and Vmax have been determined by examination of the effect of variation of substrate concentration upon enzymatic activity. […] The smaller the Km the greater the affinity. Vmax is the maximum velocity at which the enzyme will convert the substrate to product and is observed at saturating concentrations of substrate (i.e., the substrate is present in large excess over the enzyme).
In a typical amidation enzyme assay, the reation system (50 ul) would comprise enzyme (approximately 7 μg), dansyl L-Tyr-Val-Gly (up to 40 μM), L-ascorbic acid (3 mM), catalase (0 to 100 μg ml^-1), and copper sulfate (0 to 2 uM) in 60 mM TES buffer at pH 7.0. The reaction is initiated at 37° C. by the addition of enzyme and terminated after a defined period of time by the addition of 0.1 M EDTA (final concentration), which binds up copper making it unavailable for the enzyme.

A short description of data set [3]: specific alpha-amidating activity, conversion of Dansyl-D-Tyr-Val-Gly to Dansyl-D-Tyr-Val-CONH2. The settings on record: CA-77 media. How it is done:
These and other objects will become apparent from a thorough reading of the present disclosure. […] All specific activity units set forth herein are based upon the conversion of Dansyl-D-Try-Val-Gly-COOH to Dansyl-D-Tyr-Val-CONH2. One mU is defined as the amount of activity needed to convert one nanomole (nmole) of Dansyl-D-Tyr-Val-Gly-COOH to one nmole of Dansyl-D-Tyr-Val-CONH2 per minute at 37° C. and pH 7.0 in the presence of ascorbate ions at a concentration of 3 mM (based on total reaction mixture including enzyme, substrate, co-factors, etc.), molecular oxygen in a molar excess over substrate and a concentration of cupric ions effective to maximize activity (usually about 2 μM depending on the state of purity of the enzyme).
Each purification step can be monitored for both protein content and the level of alpha-amidation activity. This information is used to calculate the specific activity of the enzyme which serves as an indicator of the relative purity of the enzyme.
Sephacryl S-300 (Pharmacia) was equilibrated in 50 mM Tris HCl pH 7.0 and poured into a K 50/100 column (Pharmacia) according to the manufacturer's instructions. The bed volume of the column was approximately 1.3 liters. The Sample was loaded onto the column in a volume representing approximately 3 percent of the bed volume of the column. Proteins were eluted from the column in 50 mM Tris HCl pH 7.0 at a flow rate of approximately 2 ml per minute.
as §1
The samples were prepared in duplicate and incubated at 37° C. for 10, 20 and 30 minutes time periods. The enzymatic reaction was halted by the addition of 10 ul 500 mM EDTA.

The nature of data set [4]: nonspecific proteolytic activity of enzyme preparation. To be noted: CA-77 media, after DEAE and Sephacryl 300-SF.

Turning to “monodansyl L-Tyr-Val-Gly [Dansyl-Tyr-Val-Gly]”, at alpha-amidating enzyme [1], the Km amounted to 1.7 µM and the Vmax was determined as 21 pmol product/min/μl. Also, the Km on alpha-amidating enzyme [2] (regardless of the state of purification of the enzyme) was in the range of 1 to 2 µM.

B1: alpha-amidating enzyme (CA-77): alpha-amidating enzyme derived from CA-77 cell tissue culture media (protein, UniProt P14925 36-976, looked up)
Peptidylglycine …: T1 sequence (P14925 36-976)
Turning to B1, the activity entry in data set [3] (after DEAE and Sephacryl 300-SF) is “at least 50 mU/mg protein”. The specific activity in data set [3] (fractions from DEAE weak anion exchange cartridge) is 10-15 mU/mg. Also, in data set [4], the nonspecific proteolytic activity result is “free of nonspecific proteolytic activity”.

B2: pure tumor enzyme: pure alpha-amidating enzyme from tumor (protein, UniProt P14925 36-976, looked up)
Peptidylglycine …: T1 sequence (P14925 36-976)
For the molecule B2, the Vmax result with alpha-amidating enzyme [2] (dansyl L-Tyr-Val-Gly, pure tumor enzyme) was “about 5000 nmol product formed per mg protein”.
